In IntAct's records for PubMed 18583988:

Molecular target: csk21_human CSNK2A1 (UniProt P68400)
Chain of UniProt P68400 (P68400 whole entry, looked up): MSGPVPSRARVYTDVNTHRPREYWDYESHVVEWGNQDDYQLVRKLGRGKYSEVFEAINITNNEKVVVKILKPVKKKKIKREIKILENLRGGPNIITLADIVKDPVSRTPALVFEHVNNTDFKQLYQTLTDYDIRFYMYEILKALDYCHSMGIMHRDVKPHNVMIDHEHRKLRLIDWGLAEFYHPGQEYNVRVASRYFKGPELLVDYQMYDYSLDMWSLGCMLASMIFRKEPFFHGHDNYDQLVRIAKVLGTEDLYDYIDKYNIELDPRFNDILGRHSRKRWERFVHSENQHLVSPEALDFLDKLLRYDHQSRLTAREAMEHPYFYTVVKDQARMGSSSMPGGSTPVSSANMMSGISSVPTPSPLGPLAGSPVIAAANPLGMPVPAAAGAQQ

For “Mediator of DNA damage checkpoint protein 1 (Homo sapiens), Q14676 T301A”, the “effect of a mutation on the interaction” value was “disrupting interaction”.

In the case of “Mediator of DNA damage checkpoint protein 1 (Homo sapiens), Q14676 T331A”, the “effect of a mutation on the interaction” value is reported as “disrupting interaction”.
